# Reference: PMC9482650, “Quantitative fragmentomics allow affinity mapping of interactomes” (Nature Communications, 2022)
# T1: TX1BP3, O14907
# T1 sequence (O14907 10-122, limits assumed, looked up): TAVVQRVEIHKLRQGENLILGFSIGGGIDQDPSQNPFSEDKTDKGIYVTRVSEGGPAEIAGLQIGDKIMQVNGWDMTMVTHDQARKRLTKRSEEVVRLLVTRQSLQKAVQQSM
# T2: LIN7A, O14910
# T2 sequence (O14910 103-200, limits assumed, looked up): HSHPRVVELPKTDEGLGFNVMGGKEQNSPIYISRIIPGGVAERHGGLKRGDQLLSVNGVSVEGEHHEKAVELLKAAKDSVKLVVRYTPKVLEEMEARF
# T3: FRMPD1, Q5SYB0
# T3 sequence (Q5SYB0 52-145, limits assumed, looked up): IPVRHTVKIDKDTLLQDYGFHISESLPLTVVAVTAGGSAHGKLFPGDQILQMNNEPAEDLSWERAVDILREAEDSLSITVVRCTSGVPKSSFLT
# T4: PTPN13_1, Q12923
# T4 sequence (Q12923 1088-1188, limits assumed, looked up): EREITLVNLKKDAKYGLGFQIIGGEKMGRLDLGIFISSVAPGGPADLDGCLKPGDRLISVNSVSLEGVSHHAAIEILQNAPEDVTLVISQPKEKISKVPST
# T5: ARHGEF11, O15085
# T5 sequence (O15085 42-136, limits assumed, looked up): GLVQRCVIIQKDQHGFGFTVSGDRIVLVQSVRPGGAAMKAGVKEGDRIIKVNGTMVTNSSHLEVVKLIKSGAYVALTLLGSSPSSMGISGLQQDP
# T6: DLG3_2, Q92796
# T6 sequence (Q92796 221-321, limits assumed, looked up): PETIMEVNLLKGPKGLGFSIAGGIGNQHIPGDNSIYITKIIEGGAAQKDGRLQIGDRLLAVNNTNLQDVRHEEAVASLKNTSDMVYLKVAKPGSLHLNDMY
# T7: MPDZ_12, O75970
# T7 sequence (O75970 1857-1958, limits assumed, looked up): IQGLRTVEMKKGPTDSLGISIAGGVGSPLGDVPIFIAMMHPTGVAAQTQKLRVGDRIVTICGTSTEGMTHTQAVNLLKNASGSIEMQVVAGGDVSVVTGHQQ
# T8: SHANK1, Q9Y566
# T8 sequence (Q9Y566 658-767, limits assumed, looked up): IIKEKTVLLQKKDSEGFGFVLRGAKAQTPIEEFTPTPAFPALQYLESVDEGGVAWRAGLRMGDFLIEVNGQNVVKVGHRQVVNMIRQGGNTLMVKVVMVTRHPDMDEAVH
# T9: PCLO, Q9Y6V0
# T9 sequence (Q9Y6V0 4491-4600, limits assumed, looked up): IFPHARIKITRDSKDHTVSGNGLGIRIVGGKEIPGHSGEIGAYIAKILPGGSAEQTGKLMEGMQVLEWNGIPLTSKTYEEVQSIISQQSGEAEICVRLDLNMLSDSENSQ
# Biological target: LNX1_1, Q8TBB1
# Assay: holdup assay
# Set-up: key: below the threshold = too weak to quantify, mostly under pKd 3.1 to 4
# Settings: plain residues with an end cap or a label only (N-terminal biotin on a linker: ado-ado)
# Sequence of LNX1_1, Q8TBB1 (Q8TBB1 261-371): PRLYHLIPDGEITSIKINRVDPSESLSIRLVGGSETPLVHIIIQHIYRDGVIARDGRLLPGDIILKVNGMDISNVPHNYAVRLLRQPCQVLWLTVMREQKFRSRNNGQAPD
row,Binder,pKd
1,"HSGYRLNDYV [CLDN14, O95500]",below the threshold
2,"KKMPSIESDV [GRIN2A, Q12879]",4.04

# Biological target: PDZRN4_1, Q6ZMN7
# Assay: holdup assay
# Set-up: key: below the threshold = too weak to quantify, mostly under pKd 3.1 to 4
# Settings: plain residues with an end cap or a label only (N-terminal biotin on a linker: ado-ado)
# Sequence of PDZRN4_1, Q6ZMN7 (Q6ZMN7 213-318): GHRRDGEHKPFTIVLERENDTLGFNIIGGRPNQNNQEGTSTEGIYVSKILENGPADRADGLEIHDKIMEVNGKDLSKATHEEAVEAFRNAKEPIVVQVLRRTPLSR
row,Binder,pKd
1,"HSGYRLNDYV [CLDN14, O95500]",below the threshold
2,"KKMPSIESDV [GRIN2A, Q12879]",below the threshold

# Biological target: GRASP, Q7Z6J2
# Assay: holdup assay
# Set-up: key: below the threshold = too weak to quantify, mostly under pKd 3.1 to 4
# Settings: plain residues with an end cap or a label only (N-terminal biotin on a linker: ado-ado)
# Sequence of GRASP, Q7Z6J2 (Q7Z6J2 96-193): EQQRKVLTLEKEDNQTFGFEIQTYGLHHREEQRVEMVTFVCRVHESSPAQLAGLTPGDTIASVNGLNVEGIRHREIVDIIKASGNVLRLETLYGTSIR
row,Binder,pKd
1,"HSGYRLNDYV [CLDN14, O95500]",3.74
2,"KKMPSIESDV [GRIN2A, Q12879]",below the threshold

# Biological target: Inadl_9, Q8NI35
# Assay: holdup assay
# Set-up: key: below the threshold = too weak to quantify, mostly under pKd 3.1 to 4
# Settings: plain residues with an end cap or a label only (N-terminal biotin on a linker: ado-ado)
# Sequence of Inadl_9, Q8NI35 (Q8NI35 1530-1615): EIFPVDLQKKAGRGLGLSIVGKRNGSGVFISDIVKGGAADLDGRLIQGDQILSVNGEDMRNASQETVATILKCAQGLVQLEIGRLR
row,Binder,pKd
1,"HSGYRLNDYV [CLDN14, O95500]",3.58
2,"KKMPSIESDV [GRIN2A, Q12879]",below the threshold

# Biological target: T1, TX1BP3, O14907
# Assay: holdup assay
# Set-up: key: below the threshold = too weak to quantify, mostly under pKd 3.1 to 4
# Settings: plain residues with an end cap or a label only (N-terminal biotin on a linker: ado-ado)
row,Binder,pKd
1,"HSGYRLNDYV [CLDN14, O95500]",4.24
2,"KKMPSIESDV [GRIN2A, Q12879]",5.13

# Biological target: T2, LIN7A, O14910
# Assay: holdup assay
# Set-up: key: below the threshold = too weak to quantify, mostly under pKd 3.1 to 4
# Settings: plain residues with an end cap or a label only (N-terminal biotin on a linker: ado-ado)
row,Binder,pKd
1,"HSGYRLNDYV [CLDN14, O95500]",below the threshold
2,"KKMPSIESDV [GRIN2A, Q12879]",below the threshold

# Biological target: T3, FRMPD1, Q5SYB0
# Assay: holdup assay
# Set-up: key: below the threshold = too weak to quantify, mostly under pKd 3.1 to 4
# Settings: plain residues with an end cap or a label only (N-terminal biotin on a linker: ado-ado)
row,Binder,pKd
1,"HSGYRLNDYV [CLDN14, O95500]",below the threshold
2,"KKMPSIESDV [GRIN2A, Q12879]",below the threshold

# Biological target: T4, PTPN13_1, Q12923
# Assay: holdup assay
# Set-up: key: below the threshold = too weak to quantify, mostly under pKd 3.1 to 4
# Settings: plain residues with an end cap or a label only (N-terminal biotin on a linker: ado-ado)
row,Binder,pKd
1,"HSGYRLNDYV [CLDN14, O95500]",below the threshold
2,"KKMPSIESDV [GRIN2A, Q12879]",below the threshold

# Biological target: T5, ARHGEF11, O15085
# Assay: holdup assay
# Set-up: key: below the threshold = too weak to quantify, mostly under pKd 3.1 to 4
# Settings: plain residues with an end cap or a label only (N-terminal biotin on a linker: ado-ado)
row,Binder,pKd
1,"HSGYRLNDYV [CLDN14, O95500]",3.71
2,"KKMPSIESDV [GRIN2A, Q12879]",below the threshold

# Biological target: MAGI2_2, Q86UL8
# Assay: holdup assay
# Set-up: key: below the threshold = too weak to quantify, mostly under pKd 3.1 to 4
# Settings: plain residues with an end cap or a label only (N-terminal biotin on a linker: ado-ado)
# Sequence of MAGI2_2, Q86UL8 (Q86UL8 410-522): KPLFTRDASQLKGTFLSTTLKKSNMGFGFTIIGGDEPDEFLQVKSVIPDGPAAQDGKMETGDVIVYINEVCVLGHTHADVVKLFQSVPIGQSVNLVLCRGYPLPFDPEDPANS
row,Binder,pKd
1,"HSGYRLNDYV [CLDN14, O95500]",below the threshold
2,"KKMPSIESDV [GRIN2A, Q12879]",4.05

# Biological target: DLG5_1, Q8TDM6
# Assay: holdup assay
# Set-up: key: below the threshold = too weak to quantify, mostly under pKd 3.1 to 4
# Settings: plain residues with an end cap or a label only (N-terminal biotin on a linker: ado-ado)
# Sequence of DLG5_1, Q8TDM6 (Q8TDM6 617-713): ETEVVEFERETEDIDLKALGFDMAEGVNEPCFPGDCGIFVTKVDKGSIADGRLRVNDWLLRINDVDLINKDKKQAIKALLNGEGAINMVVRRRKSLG
row,Binder,pKd
1,"HSGYRLNDYV [CLDN14, O95500]",below the threshold
2,"KKMPSIESDV [GRIN2A, Q12879]",below the threshold

# Biological target: DLG1_1, Q12959
# Assay: holdup assay
# Set-up: key: below the threshold = too weak to quantify, mostly under pKd 3.1 to 4
# Settings: plain residues with an end cap or a label only (N-terminal biotin on a linker: ado-ado)
row,Binder,pKd
1,"HSGYRLNDYV [CLDN14, O95500]",below the threshold
2,"KKMPSIESDV [GRIN2A, Q12879]",4.75

# Biological target: Inadl_5, Q8NI35
# Assay: holdup assay
# Set-up: key: below the threshold = too weak to quantify, mostly under pKd 3.1 to 4
# Settings: plain residues with an end cap or a label only (N-terminal biotin on a linker: ado-ado)
# Sequence of Inadl_5, Q8NI35 (Q8NI35 673-780): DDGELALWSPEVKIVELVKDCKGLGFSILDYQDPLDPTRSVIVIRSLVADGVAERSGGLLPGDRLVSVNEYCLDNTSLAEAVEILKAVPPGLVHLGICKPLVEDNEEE
row,Binder,pKd
1,"HSGYRLNDYV [CLDN14, O95500]",3.48
2,"KKMPSIESDV [GRIN2A, Q12879]",below the threshold

# Biological target: Inadl_1, Q8NI35
# Assay: holdup assay
# Set-up: key: below the threshold = too weak to quantify, mostly under pKd 3.1 to 4
# Settings: plain residues with an end cap or a label only (N-terminal biotin on a linker: ado-ado)
# Sequence of Inadl_1, Q8NI35 (Q8NI35 113-229): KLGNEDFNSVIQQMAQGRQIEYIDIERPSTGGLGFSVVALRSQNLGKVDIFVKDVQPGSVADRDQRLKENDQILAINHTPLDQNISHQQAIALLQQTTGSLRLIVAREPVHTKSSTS
row,Binder,pKd
1,"HSGYRLNDYV [CLDN14, O95500]",below the threshold
2,"KKMPSIESDV [GRIN2A, Q12879]",below the threshold

# Biological target: T6, DLG3_2, Q92796
# Assay: holdup assay
# Set-up: key: below the threshold = too weak to quantify, mostly under pKd 3.1 to 4
# Settings: plain residues with an end cap or a label only (N-terminal biotin on a linker: ado-ado)
row,Binder,pKd
1,"HSGYRLNDYV [CLDN14, O95500]",below the threshold
2,"KKMPSIESDV [GRIN2A, Q12879]",5.25

# Biological target: GORASP2, Q9H8Y8
# Assay: holdup assay
# Set-up: key: below the threshold = too weak to quantify, mostly under pKd 3.1 to 4
# Settings: plain residues with an end cap or a label only (N-terminal biotin on a linker: ado-ado)
row,Binder,pKd
1,"HSGYRLNDYV [CLDN14, O95500]",3.85
2,"KKMPSIESDV [GRIN2A, Q12879]",below the threshold

# Biological target: T7, MPDZ_12, O75970
# Assay: holdup assay
# Set-up: key: below the threshold = too weak to quantify, mostly under pKd 3.1 to 4
# Settings: plain residues with an end cap or a label only (N-terminal biotin on a linker: ado-ado)
row,Binder,pKd
1,"HSGYRLNDYV [CLDN14, O95500]",below the threshold
2,"KKMPSIESDV [GRIN2A, Q12879]",below the threshold

# Biological target: GIPC2, Q8TF65
# Assay: holdup assay
# Set-up: key: below the threshold = too weak to quantify, mostly under pKd 3.1 to 4
# Settings: plain residues with an end cap or a label only (N-terminal biotin on a linker: ado-ado)
# Sequence of GIPC2, Q8TF65 (Q8TF65 112-203): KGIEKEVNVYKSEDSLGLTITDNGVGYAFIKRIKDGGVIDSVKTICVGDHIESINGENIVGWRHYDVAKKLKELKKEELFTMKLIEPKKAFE
row,Binder,pKd
1,"HSGYRLNDYV [CLDN14, O95500]",below the threshold
2,"KKMPSIESDV [GRIN2A, Q12879]",3.84

# Biological target: DLG2_3, Q15700
# Assay: holdup assay
# Set-up: key: below the threshold = too weak to quantify, mostly under pKd 3.1 to 4
# Settings: plain residues with an end cap or a label only (N-terminal biotin on a linker: ado-ado)
row,Binder,pKd
1,"HSGYRLNDYV [CLDN14, O95500]",below the threshold
2,"KKMPSIESDV [GRIN2A, Q12879]",3.74

# Biological target: T8, SHANK1, Q9Y566
# Assay: holdup assay
# Set-up: key: below the threshold = too weak to quantify, mostly under pKd 3.1 to 4
# Settings: plain residues with an end cap or a label only (N-terminal biotin on a linker: ado-ado)
row,Binder,pKd
1,"HSGYRLNDYV [CLDN14, O95500]",below the threshold
2,"KKMPSIESDV [GRIN2A, Q12879]",below the threshold

# Biological target: NHERF2_2, Q15599
# Assay: holdup assay
# Set-up: key: below the threshold = too weak to quantify, mostly under pKd 3.1 to 4
# Settings: plain residues with an end cap or a label only (N-terminal biotin on a linker: ado-ado)
# Sequence of NHERF2_2, Q15599 (Q15599 142-238): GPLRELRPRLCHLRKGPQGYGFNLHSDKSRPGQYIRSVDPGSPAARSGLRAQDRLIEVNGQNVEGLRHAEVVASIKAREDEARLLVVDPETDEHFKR
row,Binder,pKd
1,"HSGYRLNDYV [CLDN14, O95500]",below the threshold
2,"KKMPSIESDV [GRIN2A, Q12879]",below the threshold

# Biological target: GRID2IP_1, A4D2P6
# Assay: holdup assay
# Set-up: key: below the threshold = too weak to quantify, mostly under pKd 3.1 to 4
# Settings: plain residues with an end cap or a label only (N-terminal biotin on a linker: ado-ado)
# Sequence of GRID2IP_1, A4D2P6 (A4D2P6 1-87): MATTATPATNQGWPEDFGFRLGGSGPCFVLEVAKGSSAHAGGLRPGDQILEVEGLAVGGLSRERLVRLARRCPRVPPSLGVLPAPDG
row,Binder,pKd
1,"HSGYRLNDYV [CLDN14, O95500]",below the threshold
2,"KKMPSIESDV [GRIN2A, Q12879]",below the threshold

# Biological target: MAGI2_3, Q86UL8
# Assay: holdup assay
# Set-up: key: below the threshold = too weak to quantify, mostly under pKd 3.1 to 4
# Settings: plain residues with an end cap or a label only (N-terminal biotin on a linker: ado-ado)
# Sequence of MAGI2_3, Q86UL8 (Q86UL8 600-682): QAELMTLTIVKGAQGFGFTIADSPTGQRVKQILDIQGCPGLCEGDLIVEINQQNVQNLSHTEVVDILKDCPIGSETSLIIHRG
row,Binder,pKd
1,"HSGYRLNDYV [CLDN14, O95500]",below the threshold
2,"KKMPSIESDV [GRIN2A, Q12879]",below the threshold

# Biological target: NHERF4_4, Q86UT5
# Assay: holdup assay
# Set-up: key: below the threshold = too weak to quantify, mostly under pKd 3.1 to 4
# Settings: plain residues with an end cap or a label only (N-terminal biotin on a linker: ado-ado)
# Sequence of NHERF4_4, Q86UT5 (Q86UT5 464-550): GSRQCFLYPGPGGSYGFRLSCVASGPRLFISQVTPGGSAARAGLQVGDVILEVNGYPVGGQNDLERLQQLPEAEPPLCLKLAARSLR
row,Binder,pKd
1,"HSGYRLNDYV [CLDN14, O95500]",3.94
2,"KKMPSIESDV [GRIN2A, Q12879]",below the threshold

# Biological target: PTPN3, P26045
# Assay: holdup assay
# Set-up: key: below the threshold = too weak to quantify, mostly under pKd 3.1 to 4
# Settings: plain residues with an end cap or a label only (N-terminal biotin on a linker: ado-ado)
# Sequence of PTPN3, P26045 (P26045 505-587): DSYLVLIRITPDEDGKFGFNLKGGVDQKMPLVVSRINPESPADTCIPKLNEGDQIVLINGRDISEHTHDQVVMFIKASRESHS
row,Binder,pKd
1,"HSGYRLNDYV [CLDN14, O95500]",below the threshold
2,"KKMPSIESDV [GRIN2A, Q12879]",4.44

# Biological target: Inadl_10, Q8NI35
# Assay: holdup assay
# Set-up: key: below the threshold = too weak to quantify, mostly under pKd 3.1 to 4
# Settings: plain residues with an end cap or a label only (N-terminal biotin on a linker: ado-ado)
# Sequence of Inadl_10, Q8NI35 (Q8NI35 1673-1763): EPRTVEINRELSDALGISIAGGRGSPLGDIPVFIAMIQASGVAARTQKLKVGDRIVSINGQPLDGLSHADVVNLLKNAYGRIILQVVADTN
row,Binder,pKd
1,"HSGYRLNDYV [CLDN14, O95500]",below the threshold
2,"KKMPSIESDV [GRIN2A, Q12879]",below the threshold

# Biological target: T9, PCLO, Q9Y6V0
# Assay: holdup assay
# Set-up: key: below the threshold = too weak to quantify, mostly under pKd 3.1 to 4
# Settings: plain residues with an end cap or a label only (N-terminal biotin on a linker: ado-ado)
row,Binder,pKd
1,"HSGYRLNDYV [CLDN14, O95500]",below the threshold
2,"KKMPSIESDV [GRIN2A, Q12879]",below the threshold

# Biological target: MAST2, Q6P0Q8
# Assay: holdup assay
# Set-up: key: below the threshold = too weak to quantify, mostly under pKd 3.1 to 4
# Settings: plain residues with an end cap or a label only (N-terminal biotin on a linker: ado-ado)
# Sequence of MAST2, Q6P0Q8 (Q6P0Q8 1099-1202): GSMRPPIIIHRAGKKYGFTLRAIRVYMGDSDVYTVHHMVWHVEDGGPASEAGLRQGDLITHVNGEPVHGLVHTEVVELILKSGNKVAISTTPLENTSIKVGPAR
row,Binder,pKd
1,"HSGYRLNDYV [CLDN14, O95500]",3.89
2,"KKMPSIESDV [GRIN2A, Q12879]",4.95

# Biological target: MAGI2_6, Q86UL8
# Assay: holdup assay
# Set-up: key: below the threshold = too weak to quantify, mostly under pKd 3.1 to 4
# Settings: plain residues with an end cap or a label only (N-terminal biotin on a linker: ado-ado)
# Sequence of MAGI2_6, Q86UL8 (Q86UL8 1141-1229): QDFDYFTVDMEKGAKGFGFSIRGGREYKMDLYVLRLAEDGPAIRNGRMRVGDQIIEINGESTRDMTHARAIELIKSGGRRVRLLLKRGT
row,Binder,pKd
1,"HSGYRLNDYV [CLDN14, O95500]",4.12
2,"KKMPSIESDV [GRIN2A, Q12879]",4.91
